Tests used:
Jurkat T cells [1] = system: Jurkat T cells
Procedure: For the internalization experiment, cells were seeded at 1 × 10^6 cells/ml with 8 ml of full medium into 75-cm^2 flasks and treated with respective 200 nM proteins for 2 h or 5 μM peptides for 1 h.
Human A+-helix peptide ([…]; corresponding to the cleaved N-terminal peptide of hPCI), mouse A+-helix peptide ([…]; corresponding to the cleaved N-terminal peptide of mPCI), and TAT peptide ([…]) ([42]) were synthesized and labeled with FITC (GenScript, Piscataway, NJ). […] Fluorescence-activated cell sorting (FACS) analysis was performed with a FACSCalibur flow cytometer (BD Biosciences). Further data analysis was done with Flowing Software ([43]). For confocal microscopy, the fixed cells were suspended with Vectashield mounting medium containing […] DAPI (Vector Laboratories, Burlingame, CA) and transferred onto slides. Confocal images were taken by a Zeiss LSM-510 Meta confocal microscope system (Zeiss, Jena, Germany). Zeiss LSM Image Browser software was applied for further analysis of images.

testisin [2] = experiment: 30 nM testisin in testisin buffer (50 mM Tris, 150 mM NaCl, 10 mM CaCl2, pH 7.5); settings: 37 °C, up to 120 min
testisin [3] = target: T1, testisin (Mus musculus, UniProt Q9JHJ7); experiment: Cleavage by and complex formation with testisin in solution (SDS-PAGE, Western blotting, Edman degradation); assay type: biochemical; settings: for N-terminal testisin cleavage site: Edman degradation of testisin-cleaved protein, Fig. 1D
T1 construct: purchased R&D Systems
Procedure: Activation of protestisin and testisin (R&D Systems, Minneapolis, MN) activity assays were performed according to the instructions of the supplier. Inhibition of testisin by PCI was tested on 96-well F16 Black MaxiSorp plates (Nunc, Roskilde, Denmark). 20 nM testisin was incubated with 200 or 1000 nM (final concentration) rhPCI or rmPCI in the absence or presence of 5 units/ml heparin in 100 μl of testisin buffer (50 mM Tris, 150 mM NaCl, 10 mM CaCl2, pH 7.5). After a 30-min incubation at 37 °C, 100 μl of 0.2 mM fluorogenic substrate I-1295 (Bachem, Bubendorf, Switzerland) dissolved in testisin buffer was added to each well. Plates were read every 15 s at an excitation wavelength of 380 nm and an emission wavelength of 460 nm using a Synergy H4 microplate reader (BioTek, Seattle, WA). The 5-min time point was used to calculate the relative activity. The amidolytic activity of testisin in the absence of PCI was assigned to 1, and for each reaction, the remaining testisin activity was calculated. To detect the possible complex formation between PCI and testisin, different concentrations (7.5–960 nM) of rhPCI or rmPCI, respectively, were incubated with 30 nM testisin for varying times (0–40 min) at 37 °C. The reactions were stopped by adding an equal volume of 2× Laemmli buffer containing 5% 2-mercaptoethanol ([40]). Samples were heated at 99 °C for 5 min followed by sodium dodecyl sulfate-polyacrylamide electrophoresis (SDS-PAGE) and Western blotting. To determine the testisin cleavage sites in human and mouse PCI, WT PCI or PCI mutants (rhPCI, hPCI-R11G, hPCI-R354G, rmPCI, mPCI-A18G, or mPCI-R352G, respectively; 300 nM each) were incubated with 30 nM testisin for 1 h at 37 °C. […]
SDS-PAGE was performed according to the method of Laemmli ([40]) using 10% acrylamide gels. […] The signal was detected using SuperSignal West Femto or SuperSignal West Pico chemiluminescent substrate (Thermo Fisher Scientific, Rockford, IL) with a FluorChem HD2 imaging system (ProteinSimple, Santa Clara, CA). […]

Jurkat T cells [4] = experiment: Internalization of PCI forms by Jurkat T cells (cell lysis, subcellular fractionation, Western blotting); assay type: cell-based, human; settings: 200 nM protein, 2 h, 37 °C, Western blotting with anti-mPCI IgG; for internalization by Jurkat T cells (whole cell lysate and subcellular fractions): full medium, Fig. 3
Procedure: SDS-PAGE was performed according to the method of Laemmli ([40]) using 10% acrylamide gels. Following electrophoresis, the proteins were transferred onto PVDF membranes. The membranes were blocked with blotting buffer (5% skim milk powder and 0.05% Tween 20 in PBS, pH 7.4) for 1 h at room temperature. Rabbit anti-mPCI IgG (diluted 1:1000; homemade), rabbit anti-hPCI IgG (diluted 1:1000; homemade), monoclonal mouse anti-penta-His IgG (diluted 1:500; Qiagen, Hilden, Germany), rabbit anti-testisin IgG (diluted 1:500; Abgent, San Diego, CA), mouse monoclonal anti-A1AT(diluted 1:2000; Fisher Scientific GmbH), rabbit anti-actin IgG (diluted 1:2000; Sigma-Aldrich), monoclonal mouse anti-lamin B2 IgG (diluted 1:2000; Abcam, Cambridge, UK), and monoclonal mouse anti-Hsp 90 IgG (diluted 1:2000; Exbio, Prague, Czech) were used, respectively, in blotting buffer. The respective secondary antibodies were horseradish peroxidase-conjugated donkey anti-rabbit IgG (diluted 1:5000; GE Healthcare Handels GmbH) and horseradish peroxidase-conjugated sheep anti-mouse IgG (diluted 1:5000; GE Healthcare Handels GmbH). The signal was detected using SuperSignal West Femto or SuperSignal West Pico chemiluminescent substrate (Thermo Fisher Scientific, Rockford, IL) with a FluorChem HD2 imaging system (ProteinSimple, Santa Clara, CA).
Jurkat T cells were incubated in full medium with 200 nM rmPCI, testisin-cleaved rmPCI, or ΔR1-A18 mPCI, respectively, at 37 °C for 2 h. 1 × 10^7 cells were harvested and washed three times with PBS. To prepare whole cell lysates, cell pellets were resuspended and incubated in CelLytic M cell lysis buffer at room temperature for 10 min and applied to electrophoresis. Subcellular fractions were prepared as described previously ([41]) with some modifications. In brief, cell pellets were resuspended in 125 μl of buffer A (10 mM Hepes, pH 7.9, 10 mM KCl, 1.5 mM MgCl2, 0.34 M sucrose, 10% glycerol, 1 mM DTT, 0.1% Triton X-100) containing 10 μl of protease inhibitor mixture P8340 (Sigma-Aldrich) and incubated for 8 min. […]

Urokinase = Urokinase (Homo sapiens, UniProt P00749); experiment: Interaction of PCI with other proteases: urokinase; assay type: biochemical; settings: 300 nM rmPCI, 30 nM protease, 37 °C, Fig. 1F
Procedure: (§1) Urokinase, aPC, thrombin, or enteropeptidase (30 nM each) was incubated with 300 nM rmPCI, respectively, for different periods (10 or 120 min) at 37 °C. The reactions were stopped by adding an equal volume of 2× Laemmli buffer containing 5% 2-mercaptoethanol ([40]). Samples were heated at 99 °C for 5 min followed by SDS-PAGE and Western blotting.
(§2) SDS-PAGE was performed according to the method of Laemmli ([40]) using 10% acrylamide gels. Following electrophoresis, the proteins were transferred onto PVDF membranes. The membranes were blocked with blotting buffer (5% skim milk powder and 0.05% Tween 20 in PBS, pH 7.4) for 1 h at room temperature. […] The signal was detected using SuperSignal West Femto or SuperSignal West Pico chemiluminescent substrate (Thermo Fisher Scientific, Rockford, IL) with a FluorChem HD2 imaging system (ProteinSimple, Santa Clara, CA).

aPC = aPC (Homo sapiens, UniProt P04070); experiment: Interaction of PCI with other proteases: aPC; assay type: biochemical; settings: 300 nM rmPCI, 30 nM protease, 37 °C, Fig. 1F
Procedure: as §1, §2

enteropeptidase = enteropeptidase (Homo sapiens, UniProt P98073); experiment: Interaction of PCI with other proteases: enteropeptidase; assay type: biochemical; settings: 300 nM rmPCI, 30 nM protease, 37 °C, Fig. 1F
Procedure: as §1, §2

T1 sequence (Q9JHJ7 55-298 limits assumed): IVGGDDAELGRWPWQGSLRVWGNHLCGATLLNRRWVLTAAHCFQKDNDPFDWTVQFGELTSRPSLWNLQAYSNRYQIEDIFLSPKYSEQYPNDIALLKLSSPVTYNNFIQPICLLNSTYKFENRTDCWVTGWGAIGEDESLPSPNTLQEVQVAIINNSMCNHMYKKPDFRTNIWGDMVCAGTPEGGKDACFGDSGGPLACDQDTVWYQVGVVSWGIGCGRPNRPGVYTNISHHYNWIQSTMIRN
Chain of aPC (P04070 212-461 limits assumed): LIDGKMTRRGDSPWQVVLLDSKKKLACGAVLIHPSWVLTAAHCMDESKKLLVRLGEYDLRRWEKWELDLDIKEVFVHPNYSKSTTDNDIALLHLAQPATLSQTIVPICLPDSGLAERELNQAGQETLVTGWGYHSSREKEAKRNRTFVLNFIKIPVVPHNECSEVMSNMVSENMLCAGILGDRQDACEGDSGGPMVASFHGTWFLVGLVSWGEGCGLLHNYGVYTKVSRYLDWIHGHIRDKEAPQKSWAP
Chain of aPC (P04070 43-197 partner limits assumed): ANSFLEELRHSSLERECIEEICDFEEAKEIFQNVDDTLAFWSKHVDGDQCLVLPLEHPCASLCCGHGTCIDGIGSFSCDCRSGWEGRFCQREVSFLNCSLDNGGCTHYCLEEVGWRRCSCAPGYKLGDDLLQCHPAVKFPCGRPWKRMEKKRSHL
Chain of enteropeptidase (P98073 whole entry, species assumed): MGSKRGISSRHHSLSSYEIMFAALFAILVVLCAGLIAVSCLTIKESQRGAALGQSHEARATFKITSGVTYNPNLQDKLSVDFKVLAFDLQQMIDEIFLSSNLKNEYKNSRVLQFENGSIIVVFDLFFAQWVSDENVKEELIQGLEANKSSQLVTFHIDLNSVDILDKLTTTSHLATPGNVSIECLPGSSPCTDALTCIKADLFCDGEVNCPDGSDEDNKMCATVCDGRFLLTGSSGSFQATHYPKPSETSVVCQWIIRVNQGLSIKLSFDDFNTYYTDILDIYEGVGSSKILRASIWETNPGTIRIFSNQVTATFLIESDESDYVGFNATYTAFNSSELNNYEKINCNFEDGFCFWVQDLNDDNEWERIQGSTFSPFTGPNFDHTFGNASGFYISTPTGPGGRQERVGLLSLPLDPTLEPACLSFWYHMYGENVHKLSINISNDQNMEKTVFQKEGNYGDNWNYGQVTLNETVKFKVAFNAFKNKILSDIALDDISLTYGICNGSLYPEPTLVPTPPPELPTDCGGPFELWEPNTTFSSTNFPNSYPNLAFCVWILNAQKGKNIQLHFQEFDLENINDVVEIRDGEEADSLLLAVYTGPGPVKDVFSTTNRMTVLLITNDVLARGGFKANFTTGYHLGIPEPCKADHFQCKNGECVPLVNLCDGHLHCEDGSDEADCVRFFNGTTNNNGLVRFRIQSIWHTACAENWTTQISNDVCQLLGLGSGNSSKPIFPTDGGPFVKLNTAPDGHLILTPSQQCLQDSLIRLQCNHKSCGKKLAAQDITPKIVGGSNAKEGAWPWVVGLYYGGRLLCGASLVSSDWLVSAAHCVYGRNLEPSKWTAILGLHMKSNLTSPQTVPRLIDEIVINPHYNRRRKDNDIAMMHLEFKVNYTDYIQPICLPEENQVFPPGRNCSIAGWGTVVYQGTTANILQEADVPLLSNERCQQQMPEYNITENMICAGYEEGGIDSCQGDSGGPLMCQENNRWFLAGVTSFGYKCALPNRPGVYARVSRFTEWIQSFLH

RRHSHSKKKKAKESSVGA [mouse A+-helix-FITC]
intracellular localization (confocal microscopy) (Jurkat T cells [1]): cytosolic and nuclear localization

HRHHPREMKKRVEDLHVGATV...
cleaved bond (testisin [2]): Arg11-Val12

A1AT: serum-derived human α1-antitrypsin (Sigma-Aldrich), another serpin [reference compound]
cleavage by testisin (Western blotting) (testisin [3]; 300 nM protein, 30 nM testisin, 0–40 min, 37 °C, testisin buffer, Fig. 1A, B): Neither cleavage

HRHHPREMKKR [human A+-helix-FITC]
intracellular localization (confocal microscopy) (Jurkat T cells [1]): cytosolic and nuclear localization

B1: rhPCI: recombinant human protein C inhibitor with N-terminal His tag (protein, UniProt P05154 26-406, looked up)
Plasma serine protease …: EMKKRVEDLHVGATVAPSSRRDFTFDLYRALASAAPSQSIFFSPVSISMSLAMLSLGAGSSTKMQILEGLGLNLQKSSEKELHRGFQQLLQELNQPRDGFQLSLGNALFTDLVVDLQDTFVSAMKTLYLADTFPTNFRDSAGAMKQINDYVAKQTKGKIVDLLKNLDSNAVVIMVNYIFFKAKWETSFNHKGTQEQDFYVTSETVVRVPMMSREDQYHYLLDRNLSCRVVGVPYQGNATALFILPSEGKMQQVENGLSEKTLRKWLKMFKKRQLELYLPKFSIEGSYQLEKVLPSLGISNVFTSHADLSGISNHSNIQVSEMVHKAVVEVDESGTRAAAATGTIFTFRSARLNSQRLVFNRPFLMFIVDNNILFLGKVNRP
modifications: N-terminal His tag
N-terminal testisin cleavage site (testisin [3]): between Arg^11 and Val^12

B2: rmPCI: recombinant mouse protein C inhibitor with N-terminal His tag (protein, UniProt P70458 25-405, looked up)
Plasma serine protease …: SKKKKAKESSVGAVGPPSSKDFAFRLYRALVSESPGQNVFFSPLSVSMSLGMLSLGAGLKTKTQILDGLGLSLQQGQEDKLHKGFQQLLQRFRQPSDGLQLSLGSALFKDPAVHIRDDFLSAMKTLYMSDTFSTNFGNPEIAKKQINNYVAKQTKGKIVDFIKDLDSTHVMIVVNYIFFKAKWQTAFSETNTHKMDFHVTPKRTTQVPMMNREDGYSYYLDQNISCTVVGIPYQGNAIALFILPSEGKMKQVEDGLDERTLRNWLKMFTKRRLDLYLPKFSIEATYKLENVLPKLGIQDVFTTHADLSGITDHTNIKLSEMVHKSMMEVEESGTTAAAITGAIFTFRSARPSSLKIEFTRPFLLTLMEDSHILFVGKVTRP
modifications: N-terminal His tag
internalization by Jurkat T cells (whole cell lysate and subcellular fractions) (Jurkat T cells [4]): taken up by Jurkat T cells and translocated to the nucleus
detection in subcellular fractions of Jurkat T cells (Jurkat T cells [4]; Fig. 4D): detected in the nuclear envelope fraction
N-terminal testisin cleavage site (testisin [3]): between Ala^18 and Val^19
cleavage by urokinase (Urokinase; 10 or 120 min, anti-mPCI IgG): appearance of a cleaved PCI form
N-terminal cleavage by urokinase (Urokinase; 120 min, anti-penta-His IgG): do not cleave the N terminus
cleavage by aPC (aPC; 10 or 120 min, anti-mPCI IgG): appearance of a cleaved PCI form
N-terminal cleavage by aPC (aPC; 120 min, anti-penta-His IgG, N-terminally cleaved form in aPC-PCI complex not completely ruled out): do not cleave the N terminus
cleavage by enteropeptidase (enteropeptidase; 10 or 120 min, anti-mPCI IgG): appearance of a cleaved PCI form
N-terminal cleavage by enteropeptidase (enteropeptidase; 120 min, anti-penta-His IgG): do not cleave the N terminus

B3: rmPCI preincubated with U937 cells: rmPCI preincubated with testisin-expressing U937 cells (protein, UniProt P70458 25-405, looked up)
Plasma serine protease …: B2 Plasma serine protease …
modifications: preincubated with U937 cells
internalization by Jurkat T cells (whole cell lysate and subcellular fractions) (Jurkat T cells [4]): not detected inside Jurkat T cells

— paper PMC4317013 (The Journal of Biological Chemistry, 2014)
